Test results as given in PMC9352680, “A comprehensive thermodynamic model for RNA binding by the Saccharomyces cerevisiae Pumilio protein PUF4”.
Positions count from the first letter of the chain named. Numbers in names are those of the source.

T1: PUF4 RNA-binding domain (Saccharomyces cerevisiae, UniProt P25339 537-888)
T1 sequence: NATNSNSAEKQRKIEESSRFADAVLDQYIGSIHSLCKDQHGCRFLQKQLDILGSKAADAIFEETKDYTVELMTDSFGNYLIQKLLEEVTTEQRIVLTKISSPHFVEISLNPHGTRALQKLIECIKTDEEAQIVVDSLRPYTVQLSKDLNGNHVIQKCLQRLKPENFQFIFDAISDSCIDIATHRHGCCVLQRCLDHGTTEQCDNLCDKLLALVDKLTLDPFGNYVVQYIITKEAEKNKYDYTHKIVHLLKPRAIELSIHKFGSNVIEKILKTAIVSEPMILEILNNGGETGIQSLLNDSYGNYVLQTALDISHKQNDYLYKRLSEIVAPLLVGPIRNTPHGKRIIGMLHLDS

B1: Ic_S1_P5E.1_K5.1_C5.1_H5.1_A5.1_[T5C]_F5.1_[T9C]_T5.1 (ssRNA)
RNA: UCUCUUUGUACUAUCAUCUCUU
B2: Ib_S1_P5E.1_K5.1_C5.1_H5.1_A5.1_[T5A]_F5.1_[T9G]_T5.1 (ssRNA)
RNA: UCUCUUUGUAAUAUGAUCUCUU
B3: Id_ii_S2_P5E.3_K5.2_C5.2_[T-1A]_H5.2_A5.1_F5.1_T5.2_[T11A]_[A12T] (ssRNA)
RNA: UUUGAUUAAUAUGAUAUCGUUCUUUCUCAUAUAUUAUUAAUUUCUUUCUCGAUAUCAUAUUAAUCUUU
B4: Id_ii_S2_P5E.4_K5.3_C5.2_[C-2T]_[T-1C]_H5.3_A5.1_F5.1_T5.2_[T11A]_[A12T] (ssRNA)
RNA: B3 RNA with C28U, A29C, U30A, A31C, U32A, A33C
B5: Id_ii_S2_P5E.4_K5.3_C5.2_[C-2G]_[T-1C]_H5.3_A5.1_F5.1_T5.2_[T11A] (ssRNA)
RNA: B3 RNA with C28G, A29C, U30A, A31C, U32A, A33C, U41A
B6: Id_ii_S2_P5E.4_K5.3_C5.2_[C-2G]_[T-1C]_H5.3_A5.1_F5.1_T5.2_[T11A]_[A12T] (ssRNA)
RNA: B3 RNA with C28G, A29C, U30A, A31C, U32A, A33C
B7: Id_ii_S2_P5E.4_K5.3_C5.2_[C-2T]_[T-1C]_H5.3_A5.1_F5.1_T5.2_[A12C] (ssRNA)
RNA: B3 RNA with C28U, A29C, U30A, A31C, U32A, A33C, A40U, U41C
B8: Id_ii_S2_P5E.3_K5.2_C5.2_H5.2_A5.1_F5.1_T5.2_[T11G]_[A12T] (ssRNA)
RNA: B3 RNA with A29U, A40G
B9: Id_ii_S2_P5E.3_K5.2_C5.2_H5.2_A5.1_F5.1_T5.2_[T11A]_[A12C] (ssRNA)
RNA: B3 RNA with A29U, U41C
B10: Id_ii_S2_P5E.4_K5.3_C5.2_[C-2T]_[T-1C]_H5.3_A5.1_F5.1_T5.2_[T11C]_[A12C] (ssRNA)
RNA: B3 RNA with C28U, A29C, U30A, A31C, U32A, A33C, A40C, U41C
B11: Id_ii_S2_P5E.4_K5.3_C5.2_[C-2G]_[T-1C]_H5.3_A5.1_F5.1_T5.2_[T11C]_[A12G] (ssRNA)
RNA: B3 RNA with C28G, A29C, U30A, A31C, U32A, A33C, A40C, U41G
B12: Id_ii_S2_P5E.4_K5.3_C5.2_[C-2T]_[T-1A]_H5.3_A5.1_F5.1_T5.2_[T11C] (ssRNA)
RNA: B3 RNA with C28U, U30A, A31C, U32A, A33C, A40C, U41A
B13: Id_ii_S2_P5E.3_K5.2_C5.2_H5.2_A5.1_F5.1_T5.2_[T11A]_[A12T] (ssRNA)
RNA: B3 RNA with A29U
B14: Id_ii_S2_P5E.4_K5.3_C5.2_[C-2G]_H5.3_A5.1_F5.1_T5.2 (ssRNA)
RNA: B3 RNA with C28G, A29U, U30A, A31C, U32A, A33C, A40U, U41A
B15: Id_ii_S2_P5E.4_K5.3_C5.2_[C-2G]_H5.3_A5.1_F5.1_T5.2_[T11C]_[A12T] (ssRNA)
RNA: B3 RNA with C28G, A29U, U30A, A31C, U32A, A33C, A40C
B16: Id_ii_S2_P5E.3_K5.2_C5.2_H5.2_A5.1_F5.1_T5.2_[T11C]_[A12G] (ssRNA)
RNA: B3 RNA with A29U, A40C, U41G
B17: Id_ii_S2_P5E.3_K5.2_C5.2_H5.2_A5.1_F5.1_T5.2_[T11G]_[A12C] (ssRNA)
RNA: B3 RNA with A29U, A40G, U41C
B18: Id_ii_S2_P5E.4_K5.3_C5.2_[C-2G]_H5.3_A5.1_F5.1_T5.2_[A12T] (ssRNA)
RNA: B3 RNA with C28G, A29U, U30A, A31C, U32A, A33C, A40U
B19: Id_ii_S2_P5E.3_K5.2_C5.2_H5.2_A5.1_F5.1_T5.2_[T11C]_[A12T] (ssRNA)
RNA: B3 RNA with A29U, A40C
B20: Id_ii_S2_P5E.4_K5.3_C5.2_[C-2T]_[T-1C]_H5.3_A5.1_F5.1_T5.2_[T11C]_[A12T] (ssRNA)
RNA: B3 RNA with C28U, A29C, U30A, A31C, U32A, A33C, A40C
B21: Id_ii_S2_P5E.3_K5.2_C5.2_[T-1A]_H5.2_A5.1_F5.1_T5.2_[A12C] (ssRNA)
RNA: B3 RNA with A40U, U41C
B22: Id_ii_S2_P5E.4_K5.3_C5.2_[C-2T]_[T-1C]_H5.3_A5.1_F5.1_T5.2_[T11C] (ssRNA)
RNA: B3 RNA with C28U, A29C, U30A, A31C, U32A, A33C, A40C, U41A
B23: Id_ii_S2_P5E.3_K5.2_C5.2_H5.2_A5.1_F5.1_T5.2_[T11C]_[A12C] (ssRNA)
RNA: B3 RNA with A29U, A40C, U41C
B24: Id_ii_S2_P5E.3_K5.2_C5.2_H5.2_A5.1_F5.1_T5.2_[A12C] (ssRNA)
RNA: B3 RNA with A29U, A40U, U41C
B25: Id_ii_S2_P5E.4_K5.3_C5.2_[C-2T]_[T-1A]_H5.3_A5.1_F5.1_T5.2_[T11A]_[A12C] (ssRNA)
RNA: B3 RNA with C28U, U30A, A31C, U32A, A33C, U41C
B26: Id_ii_S2_P5E.4_K5.3_C5.2_[C-2G]_H5.3_A5.1_F5.1_T5.2_[T11C]_[A12C] (ssRNA)
RNA: B3 RNA with C28G, A29U, U30A, A31C, U32A, A33C, A40C, U41C
B27: Id_ii_S2_P5E.4_K5.3_C5.2_[C-2T]_[T-1C]_H5.3_A5.1_F5.1_T5.2 (ssRNA)
RNA: B3 RNA with C28U, A29C, U30A, A31C, U32A, A33C, A40U, U41A
B28: Id_ii_S2_P5E.4_K5.3_C5.2_[C-2G]_H5.3_A5.1_F5.1_T5.2_[A12C] (ssRNA)
RNA: B3 RNA with C28G, A29U, U30A, A31C, U32A, A33C, A40U, U41C
B29: Id_ii_S2_P5E.3_K5.2_C5.2_[T-1A]_H5.2_A5.1_F5.1_T5.2_[A12T] (ssRNA)
RNA: B3 RNA with A40U
B30: Id_ii_S2_P5E.4_K5.3_C5.2_[C-2G]_H5.3_A5.1_F5.1_T5.2_[T11A]_[A12C] (ssRNA)
RNA: B3 RNA with C28G, A29U, U30A, A31C, U32A, A33C, U41C
B31: Id_ii_S2_P5E.4_K5.3_C5.2_[C-2T]_[T-1A]_H5.3_A5.1_F5.1_T5.2_[T11A]_[A12T] (ssRNA)
RNA: B3 RNA with C28U, U30A, A31C, U32A, A33C
B32: Id_ii_S2_P5E.3_K5.2_C5.2_H5.2_A5.1_F5.1_T5.2_[T11C] (ssRNA)
RNA: B3 RNA with A29U, A40C, U41A
B33: Id_ii_S2_P5E.4_K5.3_C5.2_[C-2G]_[T-1C]_H5.3_A5.1_F5.1_T5.2_[A12C] (ssRNA)
RNA: B3 RNA with C28G, A29C, U30A, A31C, U32A, A33C, A40U, U41C
B34: Id_ii_S2_P5E.3_K5.2_C5.2_[T-1A]_H5.2_A5.1_F5.1_T5.2_[T11A] (ssRNA)
RNA: B3 RNA with U41A
B35: Id_ii_S2_P5E.4_K5.3_C5.2_[C-2G]_[T-1C]_H5.3_A5.1_F5.1_T5.2_[A12T] (ssRNA)
RNA: B3 RNA with C28G, A29C, U30A, A31C, U32A, A33C, A40U
B36: Id_ii_S2_P5E.4_K5.3_C5.2_[C-2G]_[T-1C]_H5.3_A5.1_F5.1_T5.2_[T11A]_[A12C] (ssRNA)
RNA: B3 RNA with C28G, A29C, U30A, A31C, U32A, A33C, U41C
B37: Id_ii_S2_P5E.4_K5.3_C5.2_[C-2G]_[T-1C]_H5.3_A5.1_F5.1_T5.2_[T11C]_[A12T] (ssRNA)
RNA: B3 RNA with C28G, A29C, U30A, A31C, U32A, A33C, A40C
B38: Id_ii_S2_P5E.4_K5.3_C5.2_[C-2T]_[T-1C]_H5.3_A5.1_F5.1_T5.2_[T11C]_[A12G] (ssRNA)
RNA: B3 RNA with C28U, A29C, U30A, A31C, U32A, A33C, A40C, U41G
B39: Id_ii_S2_P5E.4_K5.3_C5.2_[C-2G]_[T-1C]_H5.3_A5.1_F5.1_T5.2_[T11C] (ssRNA)
RNA: B3 RNA with C28G, A29C, U30A, A31C, U32A, A33C, A40C, U41A
B40: Id_ii_S2_P5E.3_K5.2_C5.2_H5.2_A5.1_F5.1_T5.2_[A12T] (ssRNA)
RNA: B3 RNA with A29U, A40U
B41: Id_ii_S2_P5E.4_K5.3_C5.2_[C-2G]_H5.3_A5.1_F5.1_T5.2_[T11A] (ssRNA)
RNA: B3 RNA with C28G, A29U, U30A, A31C, U32A, A33C, U41A
B42: Id_ii_S2_P5E.4_K5.3_C5.2_[C-2T]_[T-1A]_H5.3_A5.1_F5.1_T5.2_[T11C]_[A12G] (ssRNA)
RNA: B3 RNA with C28U, U30A, A31C, U32A, A33C, A40C, U41G
B43: Id_ii_S2_P5E.4_K5.3_C5.2_[C-2G]_H5.3_A5.1_F5.1_T5.2_[T11A]_[A12T] (ssRNA)
RNA: B3 RNA with C28G, A29U, U30A, A31C, U32A, A33C
B44: Ic_S1_P5E.1_K5.1_C5.1_H5.1_A5.1_[T5A]_F5.1_[T9C]_T5.1 (ssRNA)
RNA: UCUCUUUGUAAUAUCAUCUCUU
B45: Ib_S1_P5E.1_K5.1_C5.1_H5.1_A5.1_[T5C]_F5.1_[T9G]_T5.1 (ssRNA)
RNA: UCUCUUUGUACUAUGAUCUCUU

Target: T1, PUF4 RNA-binding domain
Assay: Mg; RNA-MaP; 20 mM Na-HEPES pH 7.4, 30 mM KOAc, 0.75 mM MgCl2, 0.1% Tween-20, 5% glycerol, 0.1 mg/mL BSA, 2 mM DTT; 25 C; 0.0125-409.6 nM protein
Conditions: tags: N-His6-TEV cleaved; C-SNAP kept, Cy3B-labelled; label: tethered on chip by stalled RNA polymerase

| Binder | Kd [µM] |
| --- | --- |
| B1 | 0.0178 |
| B2 | 0.0223 |
| B3 | 0.131 |
| B4 | > 2.3 |
| B5 | 0.549 |
| B6 | 0.408 |
| B7 | > 2.3 |
| B8 | 0.462 |
| B9 | 0.23 |
| B10 | > 2.3 |
| B11 | > 2.3 |
| B12 | > 2.3 |
| B13 | 0.234 |
| B14 | 0.0022 |
| B15 | 0.011 |
| B16 | 0.426 |
| B17 | 0.127 |
| B18 | 0.00125 |
| B19 | 0.0779 |
| B20 | > 2.3 |
| B21 | 0.151 |
| B22 | > 2.3 |
| B23 | 0.0921 |

| Binder | Kd [µM] |
| --- | --- |
| B24 | 0.0657 |
| B25 | > 2.3 |
| B26 | 0.00303 |
| B27 | 0.751 |
| B28 | 0.00112 |
| B29 | 0.223 |
| B30 | 0.00219 |
| B31 | > 2.3 |
| B32 | 0.103 |
| B33 | 0.359 |
| B34 | 0.246 |
| B35 | 0.341 |
| B36 | 0.451 |
| B37 | 0.409 |
| B38 | > 2.3 |
| B39 | 0.729 |
| B40 | 0.11 |
| B41 | 0.00143 |
| B42 | > 2.3 |
| B43 | 0.00137 |
| B44 | 0.0261 |
| B45 | 0.0132 |
